Experimental data: patent US20120164140A1

Columns and labels:
Experiment in all cases: cell-based or functional assay
BMP-5 = BMP-5 (UniProt P22003)
BMP-2 (unlabeled) = target: T1, BMP-2 (unlabeled) (UniProt P12643)
T1 sequence (looked up): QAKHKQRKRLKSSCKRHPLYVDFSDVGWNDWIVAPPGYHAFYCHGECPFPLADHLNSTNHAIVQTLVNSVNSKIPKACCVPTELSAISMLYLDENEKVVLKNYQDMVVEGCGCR

BMP-6 = BMP-6 (UniProt P22004)
BMP-4 (unlabeled) = target: T2, BMP-4 (unlabeled) (UniProt P12644)
T2 sequence (looked up): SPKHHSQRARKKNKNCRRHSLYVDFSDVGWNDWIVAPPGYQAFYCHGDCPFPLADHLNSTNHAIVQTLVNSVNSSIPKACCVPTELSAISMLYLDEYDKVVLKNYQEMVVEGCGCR

Measured: decrease in hepcidin promoter activation (luciferase reporter, Hep3B cells)

Sequence of UniProt P22003 (P22003 317-454 limits assumed): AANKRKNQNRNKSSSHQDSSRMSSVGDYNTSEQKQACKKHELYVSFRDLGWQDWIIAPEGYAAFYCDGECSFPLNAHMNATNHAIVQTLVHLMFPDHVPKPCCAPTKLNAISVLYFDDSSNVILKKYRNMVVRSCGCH
Sequence of UniProt P22004 (P22004 382-513 limits assumed): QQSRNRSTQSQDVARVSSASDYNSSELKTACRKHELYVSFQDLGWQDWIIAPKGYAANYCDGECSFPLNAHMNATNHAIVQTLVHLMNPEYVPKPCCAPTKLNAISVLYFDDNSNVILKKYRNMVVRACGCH

purified soluble human hemojuvelin fused to the Fc portion of immunoglobulin (HJV.Fc) (Fc fusion)
> 90%: all assays above
